One molecule from patent EP3912994A1 (Université de Strasbourg, dated 2021) can be followed below.

The test concerns the target T1, fibronectin type III domains 1-5 of human tenascin-C (human, UniProt P24821 625-1075).
T1 construct: range 625-1075; Expressed in HEK293 cells, purified on Streptactin XT; coated on the ELISA plate; also called TN1-5
T1 sequence (looked up): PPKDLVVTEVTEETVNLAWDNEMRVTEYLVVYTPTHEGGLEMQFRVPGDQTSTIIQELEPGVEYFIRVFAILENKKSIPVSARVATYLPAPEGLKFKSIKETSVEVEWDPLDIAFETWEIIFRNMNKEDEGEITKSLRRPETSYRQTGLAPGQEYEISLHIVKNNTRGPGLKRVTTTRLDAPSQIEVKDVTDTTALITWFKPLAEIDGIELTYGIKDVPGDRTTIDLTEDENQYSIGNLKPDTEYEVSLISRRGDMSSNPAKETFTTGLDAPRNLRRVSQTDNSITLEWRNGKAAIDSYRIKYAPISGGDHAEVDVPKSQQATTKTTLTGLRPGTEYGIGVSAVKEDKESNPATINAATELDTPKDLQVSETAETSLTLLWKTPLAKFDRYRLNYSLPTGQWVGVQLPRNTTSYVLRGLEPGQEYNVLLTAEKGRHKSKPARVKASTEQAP
Kind of test: ELISA, TN1-5 coated, biotinylated FN4-6 titrated 1 nM to 1 µM.

B1: fibronectin type III domains 4-6 of human fibronectin (double Strep-tagged) (other, UniProt P02751 909-1175, looked up, not shown: small tags and cut ends)
chain: SPRDLQFVEVTDVKVTIMWTPPESAVTGYRVDVIPVNLPGEHGQRLPISRNTFAEVTGLSPGVTYYFKVFAVSHGRESKPLTAQQTTKLDAPTNLQFVNETDSTVLVRWTPPRAQITGYRLTVGLTRRGQPRQYNVGPSVSKYPLRNLQPASEYTVSLVAIKGNQESPKATGVFTTLQPGSSIPPYNTEVTETTIVITWTPAPRIGFKLGVRPSQGGEAPREVTSDSGSIVVSGLTPGVEYVYTIQVLRDGQERDAPIVNKVVTPLS
notes: range 909-1175; Biotinylated with Biotin-Ahx-NHS for the ELISA on TN1-5; also called FN4-6
In the case of B1, binding was characterised by a dissociation constant (Kd) of 44 nM.
